From the supplement of paper PMC12042874
± gives the uncertainty stated by the source.

Test: amyloid nucleation score (Sup35N fusion, yeast selection) (log enrichment); library NNK2; higher = more nucleation; inactive = no reads after selection
Procedure, shortened: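 Plasmid inserts were Illumina-sequenced at input and output from psi-negative yeast expressing Sup35N fused to peptides of 20 random codons. The yeast were induced with 100 μM copper sulfate for 24 hours and grown 7 days at 30°C on medium lacking adenine and uracil, and sequences with under 100 input reads were excluded. Nucleation score is the DiMSum log enrichment of output over input reads, centred on the mode score of non-aggregating sequences.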

Substance | amyloid nucleation score
KTKLIRVFSTCRT | inactive
KTMNPYDFSLFIATIMKSLN | -0.476 ± 1.1
KTTLVHFFVAREYLWRRMWG | 4.38 ± 0.084
KTTSISLAVEGYLVGISLIP | 7.26 ± 0.078
KVDQGMQSSLRKCPFHQIKP | 1.62 ± 0.32
KVFIANTIGHWCMNQQIMML | 0.217 ± 0.36
KVGKDTVYKGQSIQSVYLRC | -0.41 ± 0.49
KVNKMPYSLFIYLKKLNFC | -0.518 ± 1.1
KVPMICSMEWRPLVSSHCTR | -0.718 ± 0.76
KVRLSDIPSLAMICFKRDIN | inactive
KVSGRYVEEYDHFPTDLSSL | -0.046 ± 0.54
KVSKTCY | 0.497 ± 0.24
KWKASVSFFNGHWDGLFANL | 5.07 ± 0.056
KWLND | 0.205 ± 0.41
KWNQKKNRSCFKAQRWCKLP | -0.637 ± 1.1
KWSIRVGPQWV | 3.43 ± 0.11
KWYICLKIIQWNCISDQC | 5.38 ± 0.054
KYCSINCYRTASFQTFHLCW | 6.231 ± 0.036
KYFMVVLVNIIFLYPGL | inactive
KYFVINPLIPIGQMEDIKLL | -0.156 ± 0.33
KYMRLSLEDYNC | 0.533 ± 0.39
KYVCVI | 0.809 ± 0.48
LAFGHVSVS | 0.086 ± 0.55
LAGIRCVIDRLMLCRVDAIK | -0.656 ± 0.28
LAIVKGLVKSFLCYDFSGKV | inactive

Substance | amyloid nucleation score
LALRRDLFRVVLSNKTTSTR | 1.07 ± 0.28
LALTWKAWTTHSPRKLAAVF | 0.353 ± 0.31
LAMMELYVSRETGLWYM | -0.503 ± 0.32
LAMTAAKIMDRFNGCSLKSF | 0.648 ± 0.74
LAPLDLSLVFWNTRNVLVL | 0.746 ± 0.67
LAQLQ | -0.504 ± 0.78
LASTVNIEMVSVHRDWCVWM | 5.326 ± 0.029
LATLRLWVTCQRIGISRRKG | 7.017 ± 0.037
LCDGAMRMCGWMKLGVQLGV | 2.82 ± 0.15
LCDMI | 0.544 ± 0.29
LCDWCVLS | inactive
LCENWSSLFITMKPYDFSFP | -0.43 ± 1.1
LCFKLMNSKSWMRIQTAWTL | 0.384 ± 0.34
LCFLVFMLRPRLASLYSRML | -1.11 ± 0.36
LCFNLLNPCGRFGVECGCVL | 4.53 ± 0.069
LCGSRKRCGEMLRRKLGKYV | 0.602 ± 0.81
LCGTLLIMKRVMSGYNLQAK | -0.37 ± 0.26
LCGWHD | 0.733 ± 0.47
LCHEQLCGFRMFCYSHGR | 3.58 ± 0.11
LCHKATSSFYPW | -0.808 ± 0.45
LCIGYFLV | -1.62 ± 1.1
LCLTYYRDHGVLASMYFHVW | 0.529 ± 0.31
LCMQSVSGALSPSARRRLCV | -0.235 ± 1.1
LCNNPNGGIGQLKVL | 0.515 ± 0.64
LCQHREMALMLGGEPADDWG | 1.87 ± 0.36

Substance | amyloid nucleation score
LCRCNATRGGCCLFLGCFWL | 2.73 ± 0.09
LCRKRYVRSHTTSWQTGGAF | 0.888 ± 0.48
LCRVALKEDS | 0.436 ± 0.8
LCSYANKDFKVHRSHDFVRV | 0.369 ± 0.43
LCWLIVGKCGKGKTYDGFIG | -0.78 ± 1.1
LCYMFIFRTWMLLWVQTMKN | inactive
LDAERM | 0.306 ± 0.23
LDALGLDTFNMQLV | 0.236 ± 0.28
LDDWDGKTSRIHSGFYSRLR | 0.224 ± 0.52
LDLRMRYQVPYQWGTNSAEN | 0.629 ± 0.48
LDNWEL | 0.145 ± 0.16
LDRMSRIRGSCRYACVL | 1.15 ± 0.41
LDVKERTCL | 0.261 ± 0.54
LDVYQ | -0.711 ± 0.64
LDWPDLENQAVVVNTWVSE | 0.279 ± 0.5
LDWRTQFLCV | 1.19 ± 0.61
LDYFNYCSSLGFHMVSVVYV | inactive
LDYSNFNTRKFAKDEGDMRR | 8.371 ± 0.049
LEKKLFVKVYRHSICIGVAE | 1.9 ± 0.43
LELKDNMAFDRSLFLKRHGG | -0.243 ± 0.28
LEPYLS | -0.48 ± 0.49
LERWYYPMS | 0.513 ± 0.16
LEVRSAWGHLPFMSPEGL | -1.17 ± 0.44
LFAKDGLRSRLKEC | -0.033 ± 0.27
LFDLWSVEFC | -0.392 ± 0.43

Substance | amyloid nucleation score
LFEDVMRKGRWRDASGRWKH | 3.27 ± 0.17
LFFCDPWPHLMWHLPRIVHL | -0.748 ± 0.42
LFFSCHRVDCHSALNMFIVS | 5.53 ± 0.065
LFGHLVLYYPFSSTINCVVV | 5.59 ± 0.056
LFGSVHGLTCVLSGLYCVQH | 10.32 ± 0.04
LFIGSIILHYGEKEVKMLAT | 0.571 ± 0.49
LFIRINWDFSNLWGTFGITV | 0.553 ± 0.2
LFKDMYSDLKHILNCGFQTT | -0.711 ± 0.45
LFKMCTSVFRVCSAGMMELG | 0.35 ± 0.27
LFLSGKEIPMNVFTIVCTDP | inactive
LFLTACER | 6.721 ± 0.043
LFLTDTLMMYINSECR | 1.75 ± 0.087
LFPLHFCNEHIMRLIKKLTG | 0.579 ± 0.8
LFRDTSQLGNSVIVTYYM | 9.029 ± 0.052
LFRYQRPLYGVRRTSTKVMA | 0.226 ± 0.37
LFSHELADSSTVMKYTWWAV | 4.23 ± 0.045
LFSTTRFVAHKAGR | 0.47 ± 0.33
LFSVVLVGGARRSYLRGGPG | 0.611 ± 0.81
LFSYDDMGALRVNMDWFYNF | inactive
LFTGRNRTSTHSSDISSRN | 0.531 ± 0.66
LFVIGLLSGVSICVYCRSWS | 3.41 ± 0.11
LFVKTLGFLAVCASQ | 0.609 ± 0.64
LFWIGWLRRRKKGIGVANKG | 0.001 ± 0.49
LGCEDIHKEYSLHFSIWMQM | 0.975 ± 0.18
LGCYTYLQEVRMGEDTARGG | 0.386 ± 0.39

Substance | amyloid nucleation score
LGDVYMWIFKKLLWVNHWDV | -0.033 ± 0.44
LGGGHKMDLFCYMISIWYYM | 2.77 ± 0.18
LGHILV | inactive
LGIDAYCPWCVYECFSSRGE | 9.586 ± 0.057
LGLAVKSRTPDLTGGPRASE | 1.68 ± 0.18
LGLNLTRDYLMLGKRLKCCR | -0.993 ± 0.78
LGNDR | -0.744 ± 0.48
LGRNGASYLNDSCRIPNAGK | -0.562 ± 0.56
LGSAYSGKPHVFCS | inactive
LGSLNNPA | 7.941 ± 0.077
LGYIRCLHSVSYLLFMYMLF | inactive
LGYRRSCEQGWGMLLGNYSH | inactive
LHCYCDLDDALTNPPAHHSR | 0.605 ± 0.34
LHQRLV | 0.195 ± 0.27
LHTWSVSLVYYNVFYLSSRA | -0.417 ± 1.1
LHWGEFEYCILCARGDIKR | -0.755 ± 0.5
LHWKWQMNCLWSEGSHCFNN | 0.116 ± 0.33
LIDRIKWEGPFRIRWLFSWF | 0.566 ± 0.66
LIFFCLFEYRLRLHCNRRDH | -1.34 ± 0.49
LIFFYSS | -1.05 ± 1
LIFQVMFVDCIEFRCWNMAL | 0.959 ± 0.6
LILNIRTTGCGYFC | 8.818 ± 0.049
LINCSSTLITIYSRYNAMYF | 5.415 ± 0.049
LINLVWTDEITMSDYMKRSG | 0.858 ± 0.17
LIPHSTSHRGFKLYSRVFYP | -0.047 ± 1.1

Substance | amyloid nucleation score
LIQSFSVLAMHDRLGCWRLR | 2.74 ± 0.12
LIQVGQSST | 0.046 ± 0.49
LIRFTLMSTFEITIMSFRCV | 0.934 ± 0.2
LIRSFNSSYVEGRHANI | 2.69 ± 0.14
LISSSFRSVLRPNWTPLKVC | inactive
LISVSTRKCVIIG | -0.326 ± 0.45
LIVESI | inactive
LIVKCSYLSWQAGIWAGFGY | 2.9 ± 0.089
LKGSRNRATSDKGWKEG | 0.306 ± 0.8
LKISVCQLRLFKLGARTRGW | 0.158 ± 0.8
LKLASSGVHCLLFSYCRMAE | 0.69 ± 0.62
LKMKFSYDWGVDTILLCRKA | 0.284 ± 1.1
LKQLKISRRADNYVTQCNLV | 2.91 ± 0.11
LKVISTCLRWQHASLPCQ | 0.822 ± 0.43
LKYCVH | -0.414 ± 0.61
LKYIPRWVGTSLLQRKLCDF | -0.711 ± 1.1
LLANPIELRRYGPTSLKVGI | -0.669 ± 0.55
LLARVYKTICCMNWGFRNE | 2.06 ± 0.1
LLCNGVSGGQTNQDIFHMPC | inactive
LLCYRWGHVN | 0.057 ± 0.76
LLFMKTFVVRP | 0.494 ± 0.26
LLFRRMEKSRLSLERV | -0.257 ± 0.45
LLFSG | 1.62 ± 0.32
LLFWLIRETRSLLSIYLVGT | 0.198 ± 0.46
LLGESRGVDSLQTTLWRSRR | 0.334 ± 0.24

Substance | amyloid nucleation score
LLGLHELSTS | 0.334 ± 0.46
LLGVFTETKGNP | 2.53 ± 0.11
LLHSWSYRCV | 0.039 ± 0.77
LLIRYSGFFCAPALTIPCGS | 5.12 ± 0.078
LLLCYS | -0.344 ± 0.27
LLLNLRQGMTKIPIGFILLI | -0.64 ± 0.36
LLLVHL | 1.08 ± 0.68
LLNFGVLGSDLSINKCNFSS | 1.89 ± 0.18
LLNGPVYFFNLWVHGAC | 8.126 ± 0.052
LLNVIVVRIK | 5.313 ± 0.03
LLPSSFVGGVNDVVELLSCG | 0.092 ± 1.1
LLRLRECQV | 2.73 ± 0.14
LLRMLSYR | 0.138 ± 1.1
LLRVDRCCWDN | -0.011 ± 0.54
LLSSWNKSYKIRTIGIIGNV | -0.848 ± 0.25
LLTLFG | -0.087 ± 0.56
LLTYYFVLTLVPSMFTSFVF | 1.49 ± 0.15
LLVDTNYSSQMASERFRTCG | -0.34 ± 0.37
LLVGIGMFEEQFQLYHI | -0.867 ± 0.29
LLVML | 0.851 ± 0.46
LLVRLSVCLSSEPANWDTG | 4.2 ± 0.073
LLVVIPYGSYWDV | -0.501 ± 0.78
LLWPVA | 0.386 ± 0.46
